Data from patent US20240209100A1 (DIAGONAL THERAPEUTICS, published 2024).

T1: IL-18 receptor (IL-18Rα/IL-18Rβ) overexpressed on HEK-Blue IL-18 cells (Homo sapiens (Human), UniProt Q13478 19-541; O95256 20-599)
T1 sequence 1: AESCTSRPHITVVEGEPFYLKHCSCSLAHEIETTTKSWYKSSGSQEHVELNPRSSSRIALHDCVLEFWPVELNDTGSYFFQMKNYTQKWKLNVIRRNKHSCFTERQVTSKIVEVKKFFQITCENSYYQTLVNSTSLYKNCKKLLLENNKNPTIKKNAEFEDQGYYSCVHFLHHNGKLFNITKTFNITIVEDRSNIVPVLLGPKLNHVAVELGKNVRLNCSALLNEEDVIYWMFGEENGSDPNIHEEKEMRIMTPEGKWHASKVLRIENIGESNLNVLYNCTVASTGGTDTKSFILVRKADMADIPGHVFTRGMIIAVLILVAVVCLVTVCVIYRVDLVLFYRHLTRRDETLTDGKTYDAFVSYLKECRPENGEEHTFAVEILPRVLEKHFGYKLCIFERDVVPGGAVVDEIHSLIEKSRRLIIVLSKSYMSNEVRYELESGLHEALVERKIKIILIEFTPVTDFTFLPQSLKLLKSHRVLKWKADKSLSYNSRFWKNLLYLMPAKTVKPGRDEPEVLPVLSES
T1 sequence 2: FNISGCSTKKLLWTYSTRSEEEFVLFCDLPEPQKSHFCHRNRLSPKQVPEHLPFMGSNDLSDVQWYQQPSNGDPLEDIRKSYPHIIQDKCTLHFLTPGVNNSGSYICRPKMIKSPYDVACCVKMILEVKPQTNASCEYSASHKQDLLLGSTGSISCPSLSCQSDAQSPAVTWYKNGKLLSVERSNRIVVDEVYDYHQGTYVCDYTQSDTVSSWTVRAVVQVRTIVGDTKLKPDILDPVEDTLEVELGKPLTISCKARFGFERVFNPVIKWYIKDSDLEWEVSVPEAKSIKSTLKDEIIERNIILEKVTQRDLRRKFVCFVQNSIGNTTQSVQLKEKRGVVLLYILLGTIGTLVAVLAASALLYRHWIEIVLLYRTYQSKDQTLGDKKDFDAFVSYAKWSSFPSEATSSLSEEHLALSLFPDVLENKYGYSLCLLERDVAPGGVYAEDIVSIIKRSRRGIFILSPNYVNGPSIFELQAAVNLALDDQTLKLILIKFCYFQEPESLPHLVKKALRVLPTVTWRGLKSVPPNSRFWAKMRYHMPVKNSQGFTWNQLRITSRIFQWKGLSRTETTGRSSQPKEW

B1: DGL245 (bispecific antibody, V domains shown)
V domain 1: EVQLVESGGGLVQPGGSLRLSCAASGFTLDYYTIGWFRQAPGKEREGVSCISSSGGSTNYADYVKGRFTISRDNAKNTVSLQMNSLKPEDTAVYYCAAESLIPLVETMCVMSVDDYDYWGQGTQVTVSS
V domain 2: QLQLVESGGGLVQAGGSLRLSCAASRSITFSHNVMGWYRQAPGKQRELVASIGSGGSTNYVDSVKGRATISRDNAKKTVYLQMNSLKPEDTAVYYCGVVVGVYRGSLGQGTQVTVSS
B2: DGL247 (bispecific antibody, V domains shown)
V domain 1: QVQLVESGGGSVQAGDSLRLSCAGSGRTFSSYVLGWFRQAPGKEREFVASISWSGDGTYYADSVKGRFTISRDNAENMVYLQMNSLKPEDTAVYYCAADGTTALAMSRLDASTYDFDYWGQGTQVTVSS
V domain 2: B1 V domain 2
B3: DGL248 (bispecific antibody, V domains shown)
V domain 1: QLQLVESGGGLVQPGGSLRLSCAASGFTLDYYAISWFRQVPGKEREGVSCISSNGGSTAYADSVKGRFTISRDNTKNTAYLQMNSLKPEDTAIYYCAASARTIQAMCQRSNFPTRYDYWGQGTQVTVSS
V domain 2: B1 V domain 2
B4: DGL249 (bispecific antibody, V domains shown)
V domain 1: QVQLVESGGGLVQPGGSLRLSCTASGSDLHHYAIGWFRQAPGKEREGVSCISTTGAGTNYADSVKGRFTISRDNAKNTVYLQMDSLKPEETAVYYCAADGPSAIAGCVRTVASMYRYWGQGAQVTVSS
V domain 2: B1 V domain 2
B5: DGL293 (bispecific antibody, V domains shown)
V domain 1: QVQLVESGGGLVQAGGSLRLSCAASGRTFSSYDMGWFRQAPGKEREFVAALRWSGGSTSYADSVKGRFTISRDNAKNTVYLHMNSLKPEDTAVYYCAATLETDSGTYWADYWGQGTQVTVSS
V domain 2: QVQLVESGGDLVLPGGSLKLSCEASGSISSRNSMAWYRRAPGKQRELVAAISSISSGGRTDYADFVKGRFTIFRDTAKNMVYLQMNNLKPEDTAVYDCDDPIRVASLAYDDWGQGTQVTVSS
B6: DGL295 (bispecific antibody, V domains shown)
V domain 1: QVQLQESGGGLVQPGGSARLSCVASGIIFNDYHMGWYRQAPGKQRDLVAGITAGGSTTYADSVKGRFTISRDNAKHTVYLQMNNLSPEDTAVYYCNTFYNAILDWGKGTLVTVSS
V domain 2: B5 V domain 2
B7: DGL297 (bispecific antibody, V domains shown)
V domain 1: QVQLVESGGGLVQAGGSLRLSCAASGRTFSSYTMGWFRQAPGKEREFVAAISWSAGRTYYADSVKGRFTISRDNAKNTVYLQMNSLKPEDTAVYFCAAEEAPDWAPIDCSGYGCLSLYDYWGQGTQVTVSS
V domain 2: B5 V domain 2
B8: DGL298 (bispecific antibody, V domains shown)
V domain 1: B5 V domain 1
V domain 2: QVQLVESGGGLVLPGESLRLSCVVSGTIDNINSMGWYRQAPGKQRELVAYITKLGSANYADSVEGRFTISRDNAKKTVHLQMNSLKPEDTAVYYCHANERGRITWAQGTQVTVSS
B9: DGL294 (bispecific antibody, V domains shown)
V domain 1: EVQLVESGGGLVQPGGSLRLSCAASGSIFSINAMGWYRQAPGKQREVVATSTGGGMTNYADSVKGRFTISRDNAKNTVYLQMNSLKPEDTAVYYCNADKDPFFPGDYWGQGTQVTVSS
V domain 2: B5 V domain 2
B10: DGL256 (bispecific antibody, V domains shown)
V domain 1: B4 V domain 1
V domain 2: QVQLVESGGGLVQPGGSLRLSCAASRITFSIYDMGWYRQAPGKQRELVASITRRGSTNYADSTKGRFTISRDNGKNTMYLQGNSLKPEDTAVYYCNARDILGRDYWGQGTQVTVSS
B11: DGL299 (bispecific antibody, V domains shown)
V domain 1: B9 V domain 1
V domain 2: B8 V domain 2
B12: DGL300 (bispecific antibody, V domains shown)
V domain 1: QVQLQESGGGLVQPGGSLRLSCAASGSIFSTKGLGWYRQAPGEQRELVAGISSAGWIFYTQSVKGRFTMSRDNAKNTVYLQMNSLKPEDTAVYYCNSAQSGVPLRSWGQGTQVTVAS
V domain 2: B8 V domain 2
B13: DGL250 (bispecific antibody, V domains shown)
V domain 1: QVQLVESGGGLVQAGGSLRLSCAASGRTFSKHAMGWFRQAPGKEREFVAAIDWSGGSTYYADSVKGRFTISRDNAKNTVYLQMDSLKPEDTAVYYCAADSYTDYAQLWLPELESEYDYWGQGTQVTVSS
V domain 2: QLQLVESGGGLVQPGGSLRLSCAAPGRIFGLNAMGWYRQAPGKQRELVASITTGGSTNYADSGKGRFTLSRSNAQNTVYRQMNSLQPEDTAVYYCNAKRGLNLNYWGQGTQVTVSS
B14: DGL254 (bispecific antibody, V domains shown)
V domain 1: B13 V domain 1
V domain 2: QVQLVESGGGLVQAGGSLRLSCAASESIFSFVAMGWYRQAPGKQRELVVKISSGGSTNYADSVKGRFTISRDNAKNTVYLEMNSLKFEDTGVYYCNAVRPNGMDYWGKGTLVTVSS
B15: DGL255 (bispecific antibody, V domains shown)
V domain 1: B13 V domain 1
V domain 2: B10 V domain 2
B16: DGL253 (bispecific antibody, V domains shown)
V domain 1: B13 V domain 1
V domain 2: QVQLQESGGGLVQAGGSPRLSCAVSGTAFNINNFMGWYRQAPGKQRELVATITGSSTTNYASSVKGRFTISRDSAKNTVYLQMNSLKPEDTAVYYCNLRRGGWYNYWGQGTQVTVSS
B17: DGL296 (bispecific antibody, V domains shown)
V domain 1: B13 V domain 1
V domain 2: B5 V domain 2
B18: DGL252 (bispecific antibody, V domains shown)
V domain 1: B13 V domain 1
V domain 2: QVQLQESGGGLVQAGGSLRLSCAASASIFSRYAIGWYRQAPGKQRDLVAAITSGGTTNYADSVKGRFTISTDNAKNTVYLQMNSLKPEDTAVYSCAAGDSRANYYWGQGTQVTVSS
B19: DGL251 (bispecific antibody, V domains shown)
V domain 1: B13 V domain 1
V domain 2: EVQLVESGGGLVQTGGSLRLSCVASETITDTFRMGWYRQAPGQQRELVAAITHTSETTYGDSVTGRFTISGDTAKNMVHLQMNSLKPEDTGVYYCNIRAWRRPDYWGQGTQVTVSS

Target: T1, IL-18 receptor (IL-18Rα/IL-18Rβ) …
Assay: cell-based or functional assay

Binder	HEK-Blue IL-18: Abs 405 [Abs]	HEK-Blue IL-18: Fold over Background [fold]
B1	2.1	8.6
B2	0.53	2.2
B3	0.44	1.8
B4	0.12	0.5
B5	2.83	12.3
B6	0.46	2
B7	0.63	2.7
B8	0.97	4.2
B9	0.86	3.7
B10	0.42	1.7
B11	0.91	4
B12	1.07	4.7
B13	0.49	2
B14	0.3	1.2
B15	0.32	1.3
B16	0.29	1.2
B17	0.66	2.9
B18	0.32	1.3
B19	0.31	1.3
